Patent US20190127480A1 (Regeneron, published 2019)
Where a chain is given by its changes, count along the chain named. One block for each binder: values may come before it.

Experiments:
[1] = molecular target: T1, human CD3 expressed on cells (Jurkat cells; human T-cells of PBMC) (human, UniProt P09693 23-182; P20963 22-164); test: cell-based or functional assay
[2] = molecular target: T2, human CD3 expressed on cells (Jurkat cells, a CD3+ human T-cell line; human PBMC T cells) (human, UniProt P07766 23-207; P04234 22-171); test: cell-based or functional assay
[3] = molecular target: T1, human CD3 expressed on cells (Jurkat …); test: cell-based or functional assay; remark: listed apart in the source
[4] = molecular target: T2, human CD3 expressed on cells (Jurkat …); test: FACS on Jurkat cells
Description: FACS data was acquired using the following protocol: Cells at 2×10⁵ per well were incubated with serially diluted antibodies for 30 min on ice. Post incubation, cells were washed and secondary antibody was added and incubated for an additional 30 minutes. After incubation, cells were washed, re-suspended in cold PBS containing 1% BSA and analyzed by flow cytometry with viable Jurkat cells gated by side and forward scatters. The EC₅₀s for cell binding titration were determined using Prism software with values calculated using a 4-parameter non-linear regression analysis.

[5] = molecular target: T3, Soluble heterodimeric CD3 protein (hCD3-epsilon/hCD3-delta) with either a human Fc tag (hFcΔAdp/hFc) or a … (human, UniProt P07766 23-126; P04234 22-105); test: SPR Biacore 25C antigen-capture
T3 construct: also called hCD3ε/δ; not shown: Fc tag: human (hFcΔAdp/hFc)
Summary of the method: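 Rate constants fitted to a 1:1 model, giving KD as kd/ka and dissociative half-life as ln2/(60·kd) minutes. Antibodies flowed over CD3ε/δ heterodimer captured on anti-human or anti-mouse Fc surfaces, run on a Biacore T200 at 25 °C.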

T2 sequence (P07766 23-207 limits assumed, chain 1 of 2): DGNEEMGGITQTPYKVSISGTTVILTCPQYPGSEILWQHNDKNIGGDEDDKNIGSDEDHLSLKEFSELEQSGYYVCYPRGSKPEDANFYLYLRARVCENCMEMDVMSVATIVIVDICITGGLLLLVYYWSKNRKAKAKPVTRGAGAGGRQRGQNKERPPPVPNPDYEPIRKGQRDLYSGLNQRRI
T2 sequence (P04234 22-171 limits assumed, chain 2 of 2): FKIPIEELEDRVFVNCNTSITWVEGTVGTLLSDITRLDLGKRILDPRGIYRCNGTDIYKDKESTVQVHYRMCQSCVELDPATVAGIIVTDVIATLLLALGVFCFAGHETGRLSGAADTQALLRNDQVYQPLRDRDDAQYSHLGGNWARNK
T1 sequence (chain, as listed by the source, chain 1 of 4): as the sequence (P07766 23-207 limits assumed, chain 1 of 2) above
T1 sequence (chain, as listed by the source, chain 2 of 4): as the sequence (P04234 22-171 limits assumed, chain 2 of 2) above
T1 sequence (P09693 23-182, chain 3 of 4): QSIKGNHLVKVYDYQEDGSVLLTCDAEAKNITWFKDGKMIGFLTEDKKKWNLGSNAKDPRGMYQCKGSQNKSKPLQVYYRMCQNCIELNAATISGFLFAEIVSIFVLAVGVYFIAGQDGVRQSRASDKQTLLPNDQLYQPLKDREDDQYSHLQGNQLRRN
T1 sequence (P20963 22-164, chain 4 of 4): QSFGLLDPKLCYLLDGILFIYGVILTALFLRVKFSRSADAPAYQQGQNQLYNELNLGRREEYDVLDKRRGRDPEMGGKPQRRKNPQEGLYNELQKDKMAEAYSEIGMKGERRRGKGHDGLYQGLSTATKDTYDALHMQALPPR
T3 sequence (P07766 23-126 limits assumed, stated change not applied, chain 1 of 2): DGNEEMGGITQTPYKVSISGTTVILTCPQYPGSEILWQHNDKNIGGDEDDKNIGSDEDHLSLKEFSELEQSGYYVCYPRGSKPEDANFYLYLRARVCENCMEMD
T3 sequence (P04234 22-105 limits assumed, stated change not applied, chain 2 of 2): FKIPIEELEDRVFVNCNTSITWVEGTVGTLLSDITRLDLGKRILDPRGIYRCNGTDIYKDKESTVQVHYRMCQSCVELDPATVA

B1: H1M3544N (antibody, mouse IgG1, V domains shown)
VH: EVQLVESGGGLVQPGRSLRLSCAASGFTFDDYTMHWVRQVPGKGLEWVSGISWNSGSLAYADSVKGRFTISRDNAKNSLYLQMNSLHPEDTALYYCVKDGSGYGHYSYYGLDVWGQGTTVTVSS
VL: not shown
U937 Cytotoxicity Human T-cells [1]: 172 pM

B2: H2M2708N (antibody, mouse IgG2, V domains shown)
VH: QVQLVESGGGVVQPGRSLRLSCAASGFTFRSFGMHWVRQAPGRGLEWVAMIYFDGKNKYYADSVRGRFTISRDNSKNTLYLEMSSLRAEDTAVYFCARGPGYNWLDPWGQGTLVTVSS
VL: EIVMTQSPATLSVSPGERVTLSCRASQSISRNLAWYQQKPGQAPRLLIYGASTRATGVPARFSGSGSGTEFTLTISSLQSEDFAVFHCQQYNNRPLTFGGGTEVEIK
U937 Cytotoxicity Human T-cells [1]: 3.27 pM

B3: H2M2777N (antibody, mouse IgG2, V domains shown)
VH: B2 VH with A23I, F32Y, R43K, F53Y, K56N, E82Q, S84N, E89D
VL: B2 VL with V19A, I29V, R31S, V58I, F86Y, H87Y, E103K
U937 Cytotoxicity Human T-cells [1]: 4.86 pM

B4: H2M2886N (antibody, mouse IgG2, V domains shown)
VH: B2 VH
VL: B2 VL with T20I, S52T, H87Y
U937 Cytotoxicity Human T-cells [1]: 8.06 pM

B5: H2M2862N (antibody, mouse IgG2, V domains shown)
VH: B2 VH with F32Y, R43K, F53Y, K56N, Y59K, E82Q, S84N, A88V
VL: EIVMTQSPATLSVSPGERATLSCRASQSVSRNLAWYQQKPGQAPRLLIYGASTRATDIPARFSGSGSGTEFILNISSLQSEDFALYYCQQYSNWPLTFGGGTEVEIK
U937 Cytotoxicity Human T-cells [1]: 7.66 pM

B6: H2M2885N (antibody, mouse IgG2, V domains shown)
VH: B2 VH
VL: B2 VL with T20I, S52T, H87Y
U937 Cytotoxicity Human T-cells [1]: 3.71 pM

B7: H2M2774N (antibody, mouse IgG2, V domains shown)
VH: B2 VH with A23V, F32Y, R43K, E46Q, F53Y, E82Q, S84N, V93M
VL: B2 VL with V19A, S28R, R31S, V58S, F83V, F86Y, H87Y, Y91H, R94W, E103K
U937 Cytotoxicity Human T-cells [1]: 2.46 pM

B8: H2M2775N (antibody, mouse IgG2, V domains shown)
VH: B2 VH
VL: B2 VL with T20I, S52T, H87Y
U937 Cytotoxicity Human T-cells [1]: 3.38 pM

B9: H2M2711N (antibody, V domains shown)
VH: B2 VH
VL: B2 VL with V19A, I29V
U937 Cytotoxicity Human T-cells [1]: 3.66 pM

B10: H2M2710N (antibody, V domains shown)
VH: B2 VH
VL: B2 VL with V19A, I29V
U937 Cytotoxicity Human T-cells [1]: 3.97 pM

B11: H1M2712N (antibody, mouse IgG1, V domains shown)
VH: EVQLVESGGGLVQPGGSLRLSCAATGFTFDDFTMHWVRQAPGKGLEWVSGISWNSGSIGYVDSVKGRFTISRDNAKNSLYLQMNSLRAEDTALYYCAKDNSGYGYYYYGMDVWGQGTTVTVSS
VL: B5 VL with Q27H, L33S, D57G, I72T, N74T, L85I, S92N, E103K
U937 Cytotoxicity Human T-cells [1]: 314 pM

B12: H2M3540N (antibody, mouse IgG2, V domains shown)
VH: QVHLEESGGGVVQPGRSLRLSCSASGFTFSSYAMHWVRQAPGKGLEWVAVIWYDGTNKYYLDSVKGRFTISRDNSKNTLFLQMNSLRAEDTAVYYCARDRGSIITHWGQGTLVTVSS
VL: DIQMTQSPSSLSASIGDRVTITCRASQNISSYLNWYQQKPGKAPKLLIYAASSLQSGVPSRFSGSGSGTDFTLTISSLQPEDFATYYCQQTYSTPPITFGQGTRLEIK
U937 Cytotoxicity Human T-cells [1]: 12.5 pM

B13: H2M3543N (antibody, mouse IgG2, V domains shown)
VH: EVQLVESGGGLVQPGRSLRLSCAASGFTFDDYTMHWVRQAPGKGLEWVSDISWNSGSIGYADSVKGRFTVSRDNAKNSLYLQMNSLRGEDTALYYCAKDMSGYAHYGYYGMDVWGQGTTVTVSS
VL: B12 VL with I15V, N28S, S30R, S31N, A43V, T91S, T94N
U937 Cytotoxicity Human T-cells [1]: 13.1 pM

B14: H2M2779N (antibody, V domains shown)
VH: B11 VH
VL: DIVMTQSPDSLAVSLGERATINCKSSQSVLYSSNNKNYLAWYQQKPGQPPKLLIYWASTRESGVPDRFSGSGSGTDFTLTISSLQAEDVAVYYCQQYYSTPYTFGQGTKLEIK
U937 Cytotoxicity Human T-cells [1]: 675 pM

EC50 [M] hPBMC Proliferation [2]: 2.85e-08 M
B15: H2M2789N (antibody, mouse IgG2, V domains shown)
VH: QVTLKESGPALVKPTQTLTLTCTFSGFSLSTSGMCVSWIRQPPGKALEWLARIDWDDDKYYSTSLKTRLTISKDTSKNQVVLTMTNMDPVDTATYYCARMDIVGARGGWFDPWGQGTLVTVSS
VL: DIQMTQSPSSLSASVGDRVTITCRASQGISNYLAWFQQKPGKAPKSLIYAASSLQSGVPSKFSGSGSGTDFTLTISSLQPEDFATYYCQQYNSYPLTFGGGTKVEIK

EC50 [M] hPBMC Proliferation [3]: 1.63e-13 M
B16: H1H5799P (antibody, human IgG1, V domains shown)
VH: QVQLVQSGAEVKKPGASVKVSCKASGYTFIGYYMHWVRQAPGQGLEWMGWINPKSGGTNYAQKFQGRVTMTGDTSISTAYMELSRLRSDDTAVFYCARMGDGAMFDYWGQGTLVTVSS
VL: DIQMTQSPSSLSASVGDRVTITCRASQRISSYLNWYQQKAGKAPKVLIYTASSLQSGVPSRFSGSGSGTDFTLTISSLQPEDFATYYCQQSYSTPLTFGGGTKVEIK

B17: H2M3541N (antibody, mouse IgG2, V domains shown)
VH: B13 VH with Q13R, S57T, V70I, G88P, G107Y
VL: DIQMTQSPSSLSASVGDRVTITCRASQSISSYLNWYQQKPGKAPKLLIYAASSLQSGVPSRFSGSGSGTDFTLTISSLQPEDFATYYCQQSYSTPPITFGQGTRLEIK
U937 Cytotoxicity Human T-cells [1]: 53.9 pM

B18: H1M3613N (antibody, mouse IgG1, V domains shown)
VH: B13 VH with R19K, A23T, D30A, A40G, I58K, V70I, G88T, G107Y, G110A, M111L
VL: not shown
U937 Cytotoxicity Human T-cells [1]: 866 pM

EC50 [4]: 2.3 nM
Kd [5]: 1.03 nM
T½ [5]: 0.667 h
koff [5]: 0.000289 s⁻¹
kon [5]: 281000 M⁻¹ s⁻¹
B19: H1M3549N (antibody, mouse IgG1, V domains shown)
VH: B13 VH with A23V, T28P, D30A, V70I, G88T, G107F
VL: not shown
notes: H1M: mouse IgG1 Fc, human variable regions; divalent

B20: H1M3542N (antibody, mouse IgG1, V domains shown)
VH: B13 VH with A23V, T28P, D30A, I58K, V70I, G88T, L93F, G107F
VL: not shown
U937 Cytotoxicity Human T-cells [1]: 29.2 pM

B21: H1M3549N (antibody, mouse IgG1, V domains shown)
VH: B13 VH with A23V, T28P, D30A, V70I, G88T, G107F
VL: not shown
U937 Cytotoxicity Human T-cells [1]: 107 pM

EC50 [4]: 10.3 nM
Kd [5]: 0.435 nM
T½ [5]: 2 h
koff [5]: 9.6e-05 s⁻¹
kon [5]: 220000 M⁻¹ s⁻¹
B22: H1M3613N (antibody, mouse IgG1, V domains shown)
VH: B13 VH with R19K, A23T, D30A, A40G, I58K, V70I, G88T, G107Y, G110A, M111L
VL: not shown
notes: as for B19

EC50 [4]: 2.01 nM
Kd [5]: 0.457 nM
T½ [5]: 0.967 h
koff [5]: 0.0002 s⁻¹
kon [5]: 437000 M⁻¹ s⁻¹
B23: H1M3542N (antibody, mouse IgG1, V domains shown)
VH: B13 VH with A23V, T28P, D30A, I58K, V70I, G88T, L93F, G107F
VL: not shown
notes: as for B19

B24: H2M3548N (antibody, mouse IgG2, V domains shown)
VH: EVQLVESGGGLVQPGRSLRLSCAASGFKFADYAMHWVRQAPGKGLEWVSEISWNSGSIGYVDSVKGRFTISRDNAKNSLYLQMNSLRAEDTALYYCVKDKSGYGHYYIGMDVWGQGTTVIVSS
VL: not shown
U937 Cytotoxicity Human T-cells [1]: 5.5 pM

EC50 [4]: 1.1 nM
EC50 [M] hPBMC Proliferation [2]: 1.89e-12 M
B25: H2M3548N (antibody, mouse IgG2, V domains shown)
VH: B24 VH
VL: not shown
notes: H2M: mouse IgG2 Fc, human variable regions; divalent

B26: H2M2778N (antibody, mouse IgG2, V domains shown)
VH: EVQLVESGGGLVQPGRSLRLSCAASGFTFDDYSMHWVRQAPGKGLEWVSGISWNSRSIDYADSVKGRFTISRDNAKNSLYLQMNSLRAEDTALYYCVKDNSGYGRYYYYGMDVWGQGTTVSVSS
VL: KIVMTQSPATLSVSPGERATLSCRASQSVSGNLAWYQQKPGQAPRLLIYGASTRATSIPARFSGSGSGTEFTLTISSLQSEDFAVYFCQHYYNWPLTFGGGTKVEIR
U937 Cytotoxicity Human T-cells [1]: 0 pM

EC50 [4]: 3.62 nM
Kd [5]: 0.0468 nM
T½ [5]: 29.3 h
koff [5]: 6.57e-06 s⁻¹
kon [5]: 150000 M⁻¹ s⁻¹
B27: H2M2778N (antibody, mouse IgG2, V domains shown)
VH: B26 VH
VL: B26 VL
notes: as for B25
